Consider 2 substances from paper PMC8012715, “Mechanism of NanR gene repression and allosteric induction of bacterial sialic acid metabolism” (Nature Communications, 2021).

Series [1] deals with T1, NanR (Escherichia coli K12) (UniProt P0A8W0).
T1 sequence: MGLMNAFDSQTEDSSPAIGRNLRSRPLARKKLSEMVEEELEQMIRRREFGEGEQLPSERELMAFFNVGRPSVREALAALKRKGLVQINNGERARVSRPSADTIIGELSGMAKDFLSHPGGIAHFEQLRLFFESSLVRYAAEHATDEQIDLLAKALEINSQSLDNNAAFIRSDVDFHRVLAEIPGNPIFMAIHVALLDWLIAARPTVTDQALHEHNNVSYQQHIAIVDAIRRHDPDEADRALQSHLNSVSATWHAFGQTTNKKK
In words: EMSA. Conditions: 10 nM DNA, EMSA: 10 mM MOPS pH 7.5, 50 mM KCl, 5 mM MgCl2, 10% glycerol, 30 min at room temperature, gel at 4 C, fluorescence AUC: 20 mM Tris-HCl pH 8.0, 150 mM NaCl …. A general note: Mobility shift assays separate free from complexed probe on a gel.

The target of series [2] is T1, NanR (Escherichia coli K12). In words: fluorescence-detected AUC. As to conditions: 80 nM DNA, EMSA: 10 mM MOPS pH 7.5, 50 mM KCl, 5 mM MgCl2, 10% glycerol, 30 min at room temperature, gel at 4 C, fluorescence AUC: 20 mM Tris-HCl pH 8.0, 150 mM NaCl ….

In the case of (GGTATA)3-repeat operator, FAM, the Kd in series [1] (Hill n = 2.0 ± 0.2, apparent KD) turned out to be 39 nM; in series [2] (20 mM Neu5Ac, Hill n = 2.0 ± 0.6), 578 nM; in series [2] (Hill n = 1.9 ± 0.2, no Neu5Ac) it was 20 nM.

As to (GGTATA)2-repeat, FAM, the Kd in series [1] (Hill n = 2.8 ± 0.3, two complexes) amounted to 25 nM.
